Substitutions are numbered along the chain they refer to.
B1: 3G5 scFv-Fc fusion (Fc fusion)
chain: DIQMTQSPSSLSASVGDRVTITCRASQDVGIYVNWFQQKPGKAPRRLIYRATNLADGVPSRFSGSRSGTDFTLTISSLQPEDFATYYCLEFDEHPLTFGGGTKVEIKDGGGSGGGGSGGGGSSEVQLVESGGGLVQPGGSLRLSCAASGFTFNNYWMTWVRQAPGKGLEWVASIDNSGDNTYYPDSVKDRFTISRDNAKNSLYLQMNSLRAEDTAVYYCARGGDILDSLPYWGQGTLVTVSS
notes: Substitutions derived from the printed HCDR3; not shown: wild-type human IgG Fc (hinge and constant domains)
B2: 5A3 scFv-Fc fusion (Fc fusion)
chain: B1 chain with R18I, G68S, Q205K, A220T, L226T, D227T, S228G, P230D
notes: not shown: wild-type human IgG Fc (hinge and constant domains)
B3: 10D8 scFv-Fc fusion (Fc fusion)
chain: B1 chain with R18K, I31F, G114N, G133E, L226T, D227T, S228G, L229F, P230D
notes: also called 10D8 (b); not shown: wild-type human IgG Fc (hinge and constant domains)
B4: 6B2 scFv-Fc fusion (Fc fusion)
chain: B1 chain with L226R, D227V, S228G, P230D, Y231V
notes: as for B1
B5: 6C3 scFv-Fc fusion (Fc fusion)
chain: B1 chain with L226T, D227L, S228G, P230D, Y231V
notes: as for B2
B6: 6B6 scFv-Fc fusion (Fc fusion)
chain: B1 chain with L226I, D227I, P230D, Y231W
notes: as for B1
B7: 8G9 scFv-Fc fusion (Fc fusion)
chain: B1 chain with G139S, L226T, D227T, S228G, P230D
notes: as for B2
B8: 6C2 scFv-Fc fusion (Fc fusion)
chain: B1 chain with L226K, D227V, P230D, Y231R
notes: as for B2
B9: 10G10 scFv-Fc fusion (Fc fusion)
chain: B1 chain with K103R, T158S, D179E, L226T, D227T, S228G, L229F, P230D
notes: as for B2

Molecular target: T1, HU-RAGE-SA (human, UniProt Q15109 23-342)
T1 construct: extracellular domain; Directly immobilized on a CM5 chip (~100 RU); also called hRAGE-SA; soluble human streptavidin-tagged RAGE; not shown: streptavidin tag (SA)
T1 sequence (Q15109 23-342): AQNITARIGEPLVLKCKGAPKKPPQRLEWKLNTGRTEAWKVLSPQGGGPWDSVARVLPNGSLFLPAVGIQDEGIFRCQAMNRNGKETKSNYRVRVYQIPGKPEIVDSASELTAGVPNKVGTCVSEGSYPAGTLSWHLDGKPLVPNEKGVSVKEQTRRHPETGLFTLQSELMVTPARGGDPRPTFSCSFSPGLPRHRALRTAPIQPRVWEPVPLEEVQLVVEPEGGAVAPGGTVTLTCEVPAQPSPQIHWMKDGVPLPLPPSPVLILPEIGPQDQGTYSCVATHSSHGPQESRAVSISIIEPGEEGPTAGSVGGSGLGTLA
Assay: BIAcore kd against parental M4 scFv-Fc

Fold change in kd [fold] | Binder
65.1 | B1
5.9 | B2
51.8 | B3
61 | B4
60 | B5
20.8 | B6
3.9 | B7
19.2 | B8
0.28 | B9

Molecular target: T2, hRAGE-Fc (human, UniProt Q15109 23-342, biotin label in the selections and HTRF assays)
T2 construct: extracellular domain; also called biotin labeled hRAGE-Fc; Biotin-labeled RAGE-Fc; not shown: Fc part
T2 sequence (Q15109 23-342): as above
Assay: IC50 of parental M4 scFv-Fc over IC50 of clone, HTRF competition

Fold gain scFv-Fc (hRAGE) [fold] | Binder
62.7 | B1
12.2 | B2
8.8 | B3
8.2 | B4
38.6 | B5
7.6 | B6
5.1 | B7
9.4 | B8
5 | B9

Molecular target: T3, human RAGE expressed on CHO cells (human, UniProt Q15109 23-404)
T3 construct: whole, on cells; also called CHO-RAGE cells; cell surface expressed human RAGE
T3 sequence (Q15109 23-404): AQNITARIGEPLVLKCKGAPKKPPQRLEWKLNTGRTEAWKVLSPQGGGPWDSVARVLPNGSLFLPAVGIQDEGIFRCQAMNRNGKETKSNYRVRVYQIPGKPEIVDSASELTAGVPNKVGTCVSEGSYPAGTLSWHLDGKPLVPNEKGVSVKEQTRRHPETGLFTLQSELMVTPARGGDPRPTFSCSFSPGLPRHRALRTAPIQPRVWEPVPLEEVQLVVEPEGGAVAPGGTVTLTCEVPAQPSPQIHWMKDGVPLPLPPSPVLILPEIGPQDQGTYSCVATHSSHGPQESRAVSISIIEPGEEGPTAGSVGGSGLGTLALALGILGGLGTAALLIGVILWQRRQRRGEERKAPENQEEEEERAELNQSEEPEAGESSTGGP
Assay: cell ELISA on CHO-RAGE cells, A450 corrected for control CHO cells
Procedure: Stably transfected Chinese Hamster Ovary (CHO) cells were engineered to express murine and human RAGE full length proteins. The murine and human RAGE cDNAs were cloned into the mammalian expression vector pSMED, linearized and transfected into CHO cells using lipofectin methods (Kaufman, R. J., 1990, Methods in Enzymology 185:537-66; Kaufman, R. J., 1990, Methods in Enzymology 185:487-511; Pittman, D. D. et al., 1993, Methods in Enzymology 222: 236). Cells were further selected in 20 nM methotrexate and cell extracts were harvested from individual clones and analyzed by SDS sodium dodecyl sulfate-polyacrylamide gel electrophoresis (SDS-PAGE) and Western blotting to confirm expression. […] Absorbance 450 nm values were corrected for the same clones binding to control CHO cells not expressing RAGE. EC50 values were calculated after curve fitting using GraphPad prism and are expressed in μg/ml.

EC50 [µg/mL] | Binder
0.0565 | B1
0.096 | B2
0.092 | B3
0.0816 | B4
0.155 | B5
0.0285 | B6
0.077 | B7
0.0285 | B8
0.133 | B9

Molecular target: T1, HU-RAGE-SA
Assay: BIAcore, 10 nM scFv-Fc over directly immobilized HU-RAGE-SA, 1:1 fit

koff [s⁻¹] | Binder
0.00045 | B1
0.00494 | B2
0.000566 | B3
0.000484 | B4
0.000488 | B5
0.00141 | B6
0.00344 | B7
0.00153 | B8
0.105 | B9
